In US10358638B2, “Method of producing 1,5-pentadiamine using lysine decarboxylase mutant having improved thermal stability” (AJINOMOTO CO., INC., priority 2014, dated 2019):

Tests used:
[1] = Inhibition of enzyme activity by iron ion and effect of chelating agent EDTA; assay type: biochemical, Escherichia coli
Method: (§1) The activity of the lysine decarboxylase was measured according to the method described in JP patent application laid-open Publication No. 2008-193899. 0.1 mL of a microbial cell suspension or a treated product thereof was added to 1 mL of a reaction solution containing 100 mM MES-NaOH buffer (pH 6.0), 10 g/L (55 mM) of L-lysine hydrochloride and 26.5 mg/L (0.1 mM) of PLP, and then the reaction mixture was incubated at 37° C. for 5 minutes. 0.1 mL of the reaction solution was collected and added to 1 mL of 1% (v/v) phosphoric acid to stop the reaction. Lysine and 1,5-PD were quantified with HPLC by a post column OPA method (S. R. Vale and M. B. Gloria, Journal Of AOAC International (1997) vol. 80, p. 1006-1012) or a method of quantifying remaining L-lysine using a biosensor BF-5 (Oji Scientific Instruments Co., Ltd.). One unit was defined as an activity that formed 1 μmol of 1,5-PD in one minute under this condition.
Cell free extracts were prepared from the strain expressing wild-type CadA and the strain overexpressing double mutant CadA, respectively in the same manner as in Examples 2 and 3. Using the resulting cell free extract, iron sulfate heptahydrate (Nacalai Tesque Inc.) at a final concentration of […] (2 mM) was added to the composition shown in Example 1, and an inhibitory effect was measured. […]

[2] = Screening of lysates for retained lysine decarboxylase activity after heat treatment at 65° C.; assay type: biochemical, Escherichia coli; conditions: lysate incubated at 65° C. for 2 hours, then reacted at 37° C. for 40 minutes
Method: A colony of each transformant in which the mutated lysine decarboxylase had been introduced was picked up, inoculated to 1 mL of the LB medium containing 100 μg/mL of ampicillin, and cultured at 30° C. for 24 hours. 18 μL of 100 mM 2-(N-morpholino) ethanesulfonic acid (MES)-NaOH buffer (pH6.0) and 2.7 μL of FastBreak cell lysis reagent (Promega) were added to 10 μL of this cultured medium, which was then incubated at 37° C. for 30 minutes to lyse the microbial cells. Then, this lysate solution was heated up to 65° C. and incubated for 2 hours. After this heat treatment, 190 μL of a reaction solution (pH 5.5) containing 10 g/L of lysine hydrochloride, 21.3 g/L (100 mM) of MES, 26.5 mg/L of Pyridoxal-5′-phosphate (PLP) and 20 mg/L of Bromocresol purple was added and reacted at 37° C. for 40 minutes. […] More abundant formation of 1,5-PD and retention of activity as compared to bacteria expressing the wild-type enzyme after treating with heat under the above conditions were used as an indicator. Three candidate strains expressing CadA having improved thermal stability were obtained using this indicator. These transformants of E. coli JM109 strain were designated as CadA231, CadA232 and CadA233, respectively.

[3] = Enzyme activity of culture media of expressing strains after heat treatment with or without disruption; assay type: cell-based, Escherichia coli
Method: as §1
Microbial cells of E. coli JM109/pCadA220 and E. coli JM109/pCadA234 carrying the wild-type CadA and the double mutant CadA, respectively were cultured in the LB medium. Subsequently, 15 mL of the cultured medium was inoculated into 300 mL of culture medium (25 g/L of glucose, 5 g/L of ammonium sulfate, 2 g/L of potassium phosphate, 1 g/L of magnesium sulfate heptahydrate, 20 mg/L of iron sulfate heptahydrate, 20 mg/L of manganese sulfate pentahydrate, 1 mg/L of thiamine hydrochloride, 0.45 g/L of hydrolyzed soybeans, pH 7.0) in a 500 mL jar fermenter (manufactured by ABLE & Biott Co., Ltd.), and cultured with ventilation at 300 mL/minute while stirring at 250 rpm at 30° C. for 12 hours. Culture media containing 10.1 g/L and 10.9 g/L of microbial cells in terms of dry microbial cell weight were able to be prepared for E. coli JM109/pCadA220 and E. coli JM109/pCadA234, respectively. For the purpose of improving substrate permeability, the pH value was adjusted to 5.5, and subsequently the culture media were incubated at 55° C. and 60° C., and then the culture media were directly used to measure the activity after the incubation.
Since the lysine decarboxylase is expressed within the microbial cell, when the microbial cell is used directly, lysine cannot react with the lysine decarboxylase, and the efficiency of a decarboxylation reaction is very poor. […] However, the wild-type enzyme was inactivated during the incubation when heated excessively. The mutated enzyme having the improved thermal stability could stably keep its activity even when using conditions where the wild-type enzyme was easily inactivated as shown in Example 2. When the microbial cells carrying such a mutated enzyme were used, efficient treatment in a short period of time was possible. This has shown that the mutated enzyme not only can act at higher temperature upon reaction but also can be easily used when the microbial cell is directly used.

[4] = Remaining lysine decarboxylase activity of cell free extract after incubation at 65° C.; assay type: biochemical, Escherichia coli
Method: as §1
Each transformant was inoculated to 50 mL of L medium in a 500 mL Sakaguchi flask containing 100 μg/mL of ampicillin and cultured with shaking at 30° C. for 16 hours. Microbial cells were collected from the cultured medium by centrifugation, washed once with saline, subsequently suspended in 5 mL of 100 mM potassium phosphate buffer (pH 7.0), and disrupted by sonication at 4° C. for 20 minutes. An insoluble fraction was removed by centrifuging the lysate solution at 8,000 rpm for 10 minutes to prepare a cell free extract.
The resulting cell free extract was diluted 20 fold with 100 mM MES-NaOH buffer (pH 6.0). This crude enzyme solution was incubated at 65° C., and its remaining activity after 3 and 5 hours was measured by the method described in Example 1. As a result, the activity in the crude enzyme solution from the strain expressing the mutated enzyme before incubation was almost the same as that from the strain expressing the wild-type enzyme (Table 3).

[5] = Incubation at 55° C. for 1 h, Disruption
[6] = Incubation at 55° C. for 1 h, physical treatment None
[7] = Incubation at 55° C. for 3 h, Disruption
[8] = Incubation at 55° C. for 3 h, physical treatment None
[9] = Incubation at 60° C. for 1 h, Disruption
[10] = Incubation at 60° C. for 1 h, physical treatment None
[11] = No heat treatment, physical treatment None
[12] = cell free extract diluted 20 fold, before heating

B1: pCadA220: wild-type lysine decarboxylase (CadA) derived from Escherichia coli W3110, expressed from plasmid pCadA220 (protein, UniProt P0A9H3 1-715, looked up)
Inducible lysine decarboxylase: MNVIAILNHMGVYFKEEPIRELHRALERLNFQIVYPNDRDDLLKLIENNARLCGVIFDWDKYNLELCEEISKMNENLPLYAFANTYSTLDVSLNDLRLQISFFEYALGAAEDIANKIKQTTDEYINTILPPLTKALFKYVREGKYTFCTPGHMGGTAFQKSPVGSLFYDFFGPNTMKSDISISVSELGSLLDHSGPHKEAEQYIARVFNADRSYMVTNGTSTANKIVGMYSAPAGSTILIDRNCHKSLTHLMMMSDVTPIYFRPTRNAYGILGGIPQSEFQHATIAKRVKETPNATWPVHAVITNSTYDGLLYNTDFIKKTLDVKSIHFDSAWVPYTNFSPIYEGKCGMSGGRVEGKVIYETQSTHKLLAAFSQASMIHVKGDVNEETFNEAYMMHTTTSPHYGIVASTETAAAMMKGNAGKRLINGSIERAIKFRKEIKRLRTESDGWFFDVWQPDHIDTTECWPLRSDSTWHGFKNIDNEHMYLDPIKVTLLTPGMEKDGTMSDFGIPASIVAKYLDEHGIVVEKTGPYNLLFLFSIGIDKTKALSLLRALTDFKRAFDLNLRVKNMLPSLYREDPEFYENMRIQELAQNIHKLIVHHNLPDLMYRAFEVLPTMVMTPYAAFQKELHGMTEEVYLDEMVGRINANMILPYPPGVPLVMPGEMITEESRPVLEFLQMLCEIGAHYPGFETDIHGAYRQADGRYTVKVLKEESKK
Question: Which results are given for B1?
Answer: activity with 2 mM iron ion, of the activity when no iron ion was added ([1]; 2 mM iron ion, no EDTA): 46.8%; Enzyme activity ([1]; FeSO4 2 mM, EDTA 0.5 mM): 827 units/ml; Enzyme activity ([1]; FeSO4 2 mM, EDTA 1 mM): 856 units/ml; Enzyme activity ([1]; FeSO4 2 mM, EDTA 2 mM): 821 units/ml; Enzyme activity ([1]; FeSO4 2 mM, EDTA 4 mM): 840 units/ml; Enzyme activity ([1]; FeSO4 2 mM, EDTA 5 mM): 832 units/ml; Enzyme activity ([1]; FeSO4 2 mM, EDTA None): 398 units/ml; Enzyme activity ([1]; FeSO4 None, EDTA 2 mM): 840 units/ml; Enzyme activity ([1]; FeSO4 None, EDTA None): 850 units/ml; activity after heat treatment of lysate [2]: inactivated; Enzyme activity [3, 5]: 819 units/ml; Relative activity [3, 5]: 89.6%; Enzyme activity [3, 6]: 246 units/ml; Relative activity [3, 6]: 26.9%; Enzyme activity [3, 7]: 730 units/ml; Relative activity [3, 7]: 79.9%; Enzyme activity [3, 8]: 375 units/ml; Relative activity [3, 8]: 41.0%; Enzyme activity [3, 9]: 798 units/ml; Relative activity [3, 9]: 87.3%; Enzyme activity [3, 10]: 282 units/ml; Relative activity [3, 10]: 30.9%; Enzyme activity ([3]; No heat treatment, Disruption): 914 units/ml; Relative activity ([3]; No heat treatment, Disruption): 100%; Enzyme activity [3, 11]: 17.5 units/ml; Relative activity [3, 11]: 1.9%; Activity after incubation at 65° C. for 3 h ([4]; 65° C., 3 h): 413 Units/mL; Remaining activity after incubation at 65° C. for 3 h ([4]; 65° C., 3 h, relative to before heating): 59.2%; Activity after incubation at 65° C. for 5 h ([4]; 65° C., 5 h): 360 Units/mL; Remaining activity after incubation at 65° C. for 5 h ([4]; 65° C., 5 h, relative to before heating): 51.6%; Remaining activity after incubation at 65° C. for 5 h ([4]; 65° C., 5 h, relative to before heating, listed as wild-type enzyme): reduced by half; Activity before heating [4, 12]: 697 Units/mL; Activity before heating, remaining activity [4, 12]: 100%
